Holding throughout (assay): ITC
For orientation: Isothermal titration calorimetry measures the heat released or taken up as one component is titrated into another.

Experiment [1] concerns the target C-terminal domain of yeast Hsp90 (yeast).
In experiment [2] the target is yeast Hsp90 (wild type, His-tagged) (yeast) (UniProt P02829).
Experiment [3] addresses yeast Hsp90 M705V (His-tagged) (yeast) (UniProt P02829).

B1: Tah1 (TPR-containing protein associated with Hsp90) (natural protein)
chain: MSQFEKQKEQGNSLFKQGLYREAVHCYDQLITAQPQNPVGYSNKAMALIKLGEYTQAIQMCQQGLRYTSTAEHVAIRSKLQYRLELAQGAVGSVQIPVVEVDELPEGYDRS
Consider B1, for which the Kd (in general, the free concentration of one partner at which half of the binding sites on the other are occupied at equilibrium, for simple one-to-one binding) was 320 nM in experiment [1], 780 nM in experiment [2] and 13000 nM in experiment [3]. The stoichiometry N – broadly, the number of molecules, sites or subunits per partner or assembly – in experiment [1] was determined as 0.93; in experiment [2], 1.1; in experiment [3], 0.83.

(Values after paper PMC2865030.)
